Test results as given in paper PMC10613268, “Shade-induced RTFL/DVL peptides negatively regulate the shade response by directly interacting with BSKs in Arabidopsis” (Nature Communications, 2023).
Values belong to the binder of their own block, whether it stands above or below them.

Assays:
Settings in all cases: both partners purified
GST-BSK3 WT [1] = biological target: T1, GST-BSK3 WT (Arabidopsis, UniProt Q8W4L3 1-489); assay: pull-down; in vitro (Fig. 4e): Sumo-His-RTFL18 on Ni-NTA beads, then GST or GST-BSK3/BSK6, 4 °C 2 h, 1 × PBS with 1 mM DTT; blot anti-GST, anti-His
T1 construct: BSK3, Arabidopsis; full-length coding region cloned into pGEX4-T-1; source: E. coli BL21 (DB3), purified; not shown: GST, N-terminal, kept

GST-BSK6 = biological target: T2, GST-BSK6 (Arabidopsis, UniProt Q9M324 1-490); assay: as above
T2 construct: BSK6, Arabidopsis; full-length coding region cloned into pGEX4-T-1; source: E. coli BL21 (DB3); not shown: GST, N-terminal, kept

GST-BSK3 WT [2] = biological target: T1, GST-BSK3 WT; assay: pull-down; in vitro (Fig. 4l): purified GST-BSK3 WT on glutathione beads, then His-RTFL18 (WT, M1, M2), 4 °C 2 h, 1 × PBS with 1 mM DTT; blot anti-His, anti-GST

T1 sequence (Q8W4L3 whole entry): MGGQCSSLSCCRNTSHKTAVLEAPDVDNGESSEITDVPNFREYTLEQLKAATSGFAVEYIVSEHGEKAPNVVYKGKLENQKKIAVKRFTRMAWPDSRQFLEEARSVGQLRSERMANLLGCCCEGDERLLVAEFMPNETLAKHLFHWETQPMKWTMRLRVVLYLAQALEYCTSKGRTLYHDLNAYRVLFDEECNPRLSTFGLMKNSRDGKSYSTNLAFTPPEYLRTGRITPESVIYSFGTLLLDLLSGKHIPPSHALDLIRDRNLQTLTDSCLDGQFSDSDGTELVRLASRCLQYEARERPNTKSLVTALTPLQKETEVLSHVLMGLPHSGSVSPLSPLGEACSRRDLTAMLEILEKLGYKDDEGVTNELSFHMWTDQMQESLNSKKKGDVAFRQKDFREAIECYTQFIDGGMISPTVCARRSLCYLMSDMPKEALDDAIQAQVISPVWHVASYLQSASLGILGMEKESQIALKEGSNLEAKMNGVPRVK
T2 sequence (Q9M324 whole entry): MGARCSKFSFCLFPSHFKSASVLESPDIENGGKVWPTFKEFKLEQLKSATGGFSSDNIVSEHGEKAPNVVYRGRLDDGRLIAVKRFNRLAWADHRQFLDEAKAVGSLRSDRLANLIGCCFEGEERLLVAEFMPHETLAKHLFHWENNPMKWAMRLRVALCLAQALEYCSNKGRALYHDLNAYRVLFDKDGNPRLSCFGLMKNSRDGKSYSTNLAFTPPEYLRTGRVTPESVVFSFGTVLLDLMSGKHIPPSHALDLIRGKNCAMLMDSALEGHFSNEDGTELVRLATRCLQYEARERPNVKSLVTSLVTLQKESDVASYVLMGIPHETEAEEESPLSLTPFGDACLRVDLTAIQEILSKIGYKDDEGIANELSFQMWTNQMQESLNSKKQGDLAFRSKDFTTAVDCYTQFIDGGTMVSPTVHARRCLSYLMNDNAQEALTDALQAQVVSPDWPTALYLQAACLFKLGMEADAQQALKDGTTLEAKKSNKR

binding result (GST-BSK3 WT [1]): binds | binding result (GST-BSK6): binds
B1: Sumo-His-RTFL18 (peptide, UniProt Q6X5V0 1-51, looked up)
chain: MEMKRVMMSSAERSKEKKRSISRRLGKYMKEQKGRIYIIRRCMVMLLCSHD
notes: RTFL18 (DVL1), Arabidopsis; full-length coding region cloned into a pET-SUMO vector; source: E. coli BL21 (DB3); not shown: SUMO, N-terminal, kept; His, N-terminal, kept

binding result (GST-BSK3 WT [2]): binds
B2: His-RTFL18 WT (peptide, UniProt Q6X5V0 1-51, looked up)
chain: B1 chain
notes: RTFL18 (DVL1), Arabidopsis; full-length coding region cloned into a pET-SUMO vector; also called 6His-RTFL18 WT (wild type); source: E. coli BL21 (DB3), purified; not shown: His6, N-terminal, kept
